A word on the EC50 (read off the curve): it is the midpoint of the concentration-response curve. Lower therefore signals greater potency.

Consider 6 molecules from patent US20210155699A1.

One assay has as its target 2F8-HG-Y275A. Briefly: non-covalent nano-ESI MS, 0.01-10 uM; self-dimerisation (FIG. 6).
A further assay addresses 2F8-HG-L236V. The description is as above.
For another assay, the target named is purified EGFr (Sigma) (UniProt P00533). Briefly: ELISA on coated purified EGFr (50 ng/well), without and with polyclonal human IgG (IVIG), both curves in the same bundle. (In general: ELISA stands for enzyme-linked immunosorbent assay.)
The next assay deals with EGFr in A431 cells (UniProt P00533).
The target of the next assay is 2F8-HG-F273A. Briefly: non-covalent nano-ESI MS, 0.01-10 uM; self-dimerisation (FIG. 6).

For 2F8-HG-Y275A (antibody), the percent monomeric at low concentrations in the assay with 2F8-HG-Y275A amounted to 100%.

2F8-HG-L236V (antibody) gave a percent monomeric at low concentrations in the assay with 2F8-HG-L236V of 100%.

Regarding 2F8-HG-R277A (antibody), the concentration giving a half-maximal response (EC50 (read off the curve)) with purified EGFr (Sigma) was 0.08 µg/mL. This molecule yielded an IC50 (read off the curve) with EGFr in A431 cells of 3 nM.

For 2F8-HG-R277K (antibody), in the assay with purified EGFr (Sigma), the EC50 (read off the curve) was found to be 0.08 µg/mL.

B1: 2F8-HG-F273L (antibody, part only; not given: anti-EGFr VH and light chain, part only)
heavy, part: ASTKGPSVFPLAPCSRSTSESTAALGCLVKDYFPEPVTVSWNSGALTSGVHTFPAVLQSSGLYSLSSVVTVPSSSLGTKTYTCNVDHKPSNTKVDKRVAPEFLGGPSVFLFPPKPKDTLMISRTPEVTCVVVDVSQEDPEVQFNWYVDGVEVHNAKTKPREEQFNSTYRVVSVLTVLHQDWLNGKEYKCKVSNKGLPSSIEKTISKAKGQPREPQVYTLPPSQEEMTKNQVSLTCLVKGFYPSDIAVEWESNGQPENNYKTTPPVLDSDGSFLLYSRLTVDKSRWQEGNVFSCSVMHEALHNHYTQKSLSLSLGK
Molecule B1 had an EC50 (read off the curve) with purified EGFr (Sigma) of 0.08 µg/mL.

B2: 2F8-HG-F273A (antibody, part only; not given: anti-EGFr VH and light chain, part only)
heavy, part: ASTKGPSVFPLAPCSRSTSESTAALGCLVKDYFPEPVTVSWNSGALTSGVHTFPAVLQSSGLYSLSSVVTVPSSSLGTKTYTCNVDHKPSNTKVDKRVAPEFLGGPSVFLFPPKPKDTLMISRTPEVTCVVVDVSQEDPEVQFNWYVDGVEVHNAKTKPREEQFNSTYRVVSVLTVLHQDWLNGKEYKCKVSNKGLPSSIEKTISKAKGQPREPQVYTLPPSQEEMTKNQVSLTCLVKGFYPSDIAVEWESNGQPENNYKTTPPVLDSDGSFALYSRLTVDKSRWQEGNVFSCSVMHEALHNHYTQKSLSLSLGK
With B2, the EC50 (read off the curve) in the assay with purified EGFr (Sigma) was 0.08 µg/mL. In the assay with 2F8-HG-F273A, this molecule showed a percent monomeric at low concentrations of 100%.
